Article PMC2930513

Columns and labels:
[1] = target: HIV-1 BaL Env trimer (cleaved gp120/gp41) on Gag-Env VLPs (HIV-1 strain BaL); assay: native gel or EMSA
[2] = target: HIV-1 JR-FL Env trimer (cleaved gp120/gp41) from JR-FL Gag-Env VLPs (HIV-1 strain JR-FL); assay: native gel or EMSA

Substance	stoichiometry N [1]	stoichiometry N [2]
HIV-1 BaL Env trimer (cleaved gp120/gp41) on Gag-Env VLPs (complex)	3	–
HIV-1 JR-FL Env trimer (cleaved gp120/gp41) from JR-FL Gag-Env VLPs (complex)	–	3
